Target: ospg_shifl ospG (UniProt Q99PZ6)
Sequence (Q99PZ6 whole entry): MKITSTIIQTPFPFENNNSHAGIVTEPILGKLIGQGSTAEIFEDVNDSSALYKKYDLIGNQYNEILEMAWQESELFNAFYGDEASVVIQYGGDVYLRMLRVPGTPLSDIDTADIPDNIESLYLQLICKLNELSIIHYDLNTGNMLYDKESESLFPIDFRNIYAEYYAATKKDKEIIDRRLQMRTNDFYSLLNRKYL

Chain of Ubiquitin-conjugating enzyme E2 D3 (Homo sapiens), P61077 F62A (P61077 whole entry F62A): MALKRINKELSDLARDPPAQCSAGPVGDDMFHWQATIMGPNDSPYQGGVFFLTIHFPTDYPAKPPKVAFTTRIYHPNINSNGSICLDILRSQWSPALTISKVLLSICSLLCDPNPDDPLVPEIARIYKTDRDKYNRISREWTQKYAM

In the case of “Ubiquitin-conjugating enzyme E2 D3 (Homo sapiens), P61077 F62A”, the “effect of a mutation on the interaction” value is reported as “disrupting interaction”.

Source: IntAct's records for PubMed 24446487
